# T1: TRBP-WT (human, UniProt Q15633 1-366)
# T1 sequence: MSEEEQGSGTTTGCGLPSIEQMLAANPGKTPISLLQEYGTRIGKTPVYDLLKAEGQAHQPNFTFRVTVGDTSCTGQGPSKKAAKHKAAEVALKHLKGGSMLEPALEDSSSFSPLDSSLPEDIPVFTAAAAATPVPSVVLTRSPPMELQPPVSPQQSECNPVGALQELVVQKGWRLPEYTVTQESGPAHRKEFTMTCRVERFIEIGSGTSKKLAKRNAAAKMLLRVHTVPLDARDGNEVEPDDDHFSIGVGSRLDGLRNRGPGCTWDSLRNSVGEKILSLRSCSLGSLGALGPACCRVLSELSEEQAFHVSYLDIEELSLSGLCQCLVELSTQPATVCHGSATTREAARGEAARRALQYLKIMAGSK
# T2: TRBP-ΔdsRBD3 (human, UniProt Q15633 1-292)
# T2 sequence: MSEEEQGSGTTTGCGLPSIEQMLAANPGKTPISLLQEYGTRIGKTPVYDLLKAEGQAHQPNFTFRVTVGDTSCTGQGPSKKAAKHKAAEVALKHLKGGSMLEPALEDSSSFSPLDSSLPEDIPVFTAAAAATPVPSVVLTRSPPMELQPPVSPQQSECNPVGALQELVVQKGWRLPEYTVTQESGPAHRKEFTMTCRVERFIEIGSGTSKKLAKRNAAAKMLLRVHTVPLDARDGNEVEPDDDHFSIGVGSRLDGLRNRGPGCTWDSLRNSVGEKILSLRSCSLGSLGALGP
# T3: PACT-WT (N-terminal His- and C-terminal myc-tagged protein activator of PKR) (human), O75569
# T3 chain: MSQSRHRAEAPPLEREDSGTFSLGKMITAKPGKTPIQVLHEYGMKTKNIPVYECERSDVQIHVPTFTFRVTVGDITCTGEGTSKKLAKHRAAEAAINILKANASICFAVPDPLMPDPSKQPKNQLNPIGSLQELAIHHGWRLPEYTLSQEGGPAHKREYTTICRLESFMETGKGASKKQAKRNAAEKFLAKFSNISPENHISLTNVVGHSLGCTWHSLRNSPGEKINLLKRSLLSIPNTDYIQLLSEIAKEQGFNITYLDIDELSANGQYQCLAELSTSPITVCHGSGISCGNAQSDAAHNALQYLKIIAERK
# Assays:
# TRBP-WT [1] = target: T1, TRBP-WT; test: EMSA; complex 1 (monomer); EMSA: 20 mM Tris pH 7.5, 150 mM NaCl, 2 mM EDTA, 1 mM 2-mercaptoethanol, 1 mM DTT, 50 ng/ul salmon sperm DNA, 0.4 U/ul RNasin, 0.5 nM 32P-siRNA, 30 min on ice; settings: protein: recombinant, tags: N-His6;C-myc, label: 32P guide strand
# TRBP-WT [2] = target: T1, TRBP-WT; test: EMSA; EMSA: 20 mM Tris pH 7.5, 150 mM NaCl, 2 mM EDTA, 1 mM 2-mercaptoethanol, 1 mM DTT, 50 ng/ul salmon sperm DNA, 0.4 U/ul RNasin, 0.5 nM 32P-siRNA, 30 min on ice; settings: protein: recombinant, tags: N-His6;C-myc, label: 32P
# [3] = target: the molecule itself; test: native gel or EMSA; purified protein 0-1,300 nM with 0.5 nM 32P-labeled siRNA, 30 min on ice; 20 mM Tris pH 7.5, 150 mM NaCl, 2 mM EDTA, 1 mM 2-mercaptoethanol, 1 mM DTT, salmon sperm DNA, RNasin; 9% polyacrylamide gel; Kd from siRNA-binding curves; complex 2 = second protein molecule joining the protein-siRNA complex 1
# TRBP-ΔdsRBD3 = target: T2, TRBP-ΔdsRBD3; test: EMSA; complex 1; EMSA: 20 mM Tris pH 7.5, 150 mM NaCl, 2 mM EDTA, 1 mM 2-mercaptoethanol, 1 mM DTT, 50 ng/ul salmon sperm DNA, 0.4 U/ul RNasin, 0.5 nM 32P-siRNA, 30 min on ice; settings: protein: recombinant; tags: N-His6;C-myc; label: 32P guide strand; 2 nt 3' overhangs
# [4] = target: T3, PACT-WT (N-terminal His- and C-terminal …); test: SEC; Superdex 200 HR 10/30; purified protein (TRBP proteins 1,300 nM, 330-1,300 nM in Figure S3; PACT concentration not stated) pre-incubated with siLuc-36 siRNA (300 nM) 30 min on ice; 20 mM Tris pH 7.5, 150 mM NaCl, 2 mM EDTA, 1 mM 2-mercaptoethanol, 1 mM DTT; fractions blotted with anti-myc; settings: remark: other sources report otherwise
# [5] = target: the molecule itself; test: as above
binder,measurement,setting,value
siLuc-18 (dsRNA) RNA 1: GGCGCCGGGCCUUUCUUUAUG RNA 2: UAAAGAAAGGCCCGGCGCCAU,Kd,TRBP-WT [1]; 2 nt 3' overhangs,5.8 nM
UCUUCCAGCGGAUAGAAUGGC (ssRNA) [ssRNA_Luc-36],binding result,TRBP-WT [2]; single strand,no binding
"TRBP-dsRBDmt1 (natural protein, human, UniProt Q15633 1-366, looked up, full length human TRBP with lysines 80 and 81 in dsRBD1 replaced with alanines; source: E. coli Rosetta (DE3) pLysS, purified (Ni-NTA agarose); not shown: His6, N-terminal, kept; myc, C-terminal, kept) MSEEEQGSGTTTGCGLPSIEQMLAANPGKTPISLLQEYGTRIGKTPVYDLLKAEGQAHQPNFTFRVTVGDTSCTGQGPSAAAAKHKAAEVALKHLKGGSMLEPALEDSSSFSPLDSSLPEDIPVFTAAAAATPVPSVVLTRSPPMELQPPVSPQQSECNPVGALQELVVQKGWRLPEYTVTQESGPAHRKEFTMTCRVERFIEIGSGTSKKLAKRNAAAKMLLRVHTVPLDARDGNEVEPDDDHFSIGVGSRLDGLRNRGPGCTWDSLRNSVGEKILSLRSCSLGSLGALGPACCRVLSELSEEQAFHVSYLDIEELSLSGLCQCLVELSTQPATVCHGSATTREAARGEAARRALQYLKIMAGSK",binding result,[3],binds
"TRBP-dsRBDmt2 (natural protein, human, UniProt Q15633 1-366, looked up, full length human TRBP with lysines 210 and 211 in dsRBD2 replaced with alanines; source: E. coli Rosetta (DE3) pLysS, purified (Ni-NTA agarose); not shown: His6, N-terminal, kept; myc, C-terminal, kept) MSEEEQGSGTTTGCGLPSIEQMLAANPGKTPISLLQEYGTRIGKTPVYDLLKAEGQAHQPNFTFRVTVGDTSCTGQGPSKKAAKHKAAEVALKHLKGGSMLEPALEDSSSFSPLDSSLPEDIPVFTAAAAATPVPSVVLTRSPPMELQPPVSPQQSECNPVGALQELVVQKGWRLPEYTVTQESGPAHRKEFTMTCRVERFIEIGSGTSAALAKRNAAAKMLLRVHTVPLDARDGNEVEPDDDHFSIGVGSRLDGLRNRGPGCTWDSLRNSVGEKILSLRSCSLGSLGALGPACCRVLSELSEEQAFHVSYLDIEELSLSGLCQCLVELSTQPATVCHGSATTREAARGEAARRALQYLKIMAGSK",binding result,[3],binds
siLuc-36B (dsRNA) RNA 1: UCUUCCAGCGGAUAGAAUGGC RNA 2: GCCAUUCUAUCCGCUGGAAGA,Kd,TRBP-WT [1]; blunt,4.5 nM
dsDNA_Luc2-153 (dsDNA) DNA 1: TCGAAGTATTCCGCGTACGTG DNA 2: CGTACGCGGAATACTTCGATT,binding result,TRBP-WT [2],no binding
siLuc-48 (dsRNA) RNA 1: CCAGCGGUUCCAUCUUCCAGC RNA 2: UGGAAGAUGGAACCGCUGGAG,Kd,TRBP-WT [1]; 2 nt 3' overhangs,33 nM
siLuc-36 (dsRNA) RNA 1: UCUUCCAGCGGAUAGAAUGGC RNA 2: CAUUCUAUCCGCUGGAAGAUG,Kd,TRBP-ΔdsRBD3,5 nM
same,Kd,TRBP-WT [1]; 2 nt 3' overhangs,5.3 nM
siLuc-30 (dsRNA) RNA 1: UCUUCAUAGAAUGGCGCCGGG RNA 2: CGGCGCCAUUCUAUGAAGAUG,Kd,TRBP-WT [1]; 2 nt 3' overhangs,6.2 nM
dsDNA_Luc-36 (dsDNA) DNA 1: TCTTCCAGCGGATAGAATGGC DNA 2: CATTCTATCCGCTGGAAGATG,binding result,TRBP-WT [2],no binding
siLuc2-153B (dsRNA) RNA 1: UCGAAGUAUUCCGCGUACGUG RNA 2: CACGUACGCGGAAUACUUCGA,Kd,TRBP-WT [1]; blunt,5.1 nM
"PACT-WT (N-terminal His- and C-terminal myc-tagged protein activator of PKR), O75569 1-313 (natural protein) MSQSRHRAEAPPLEREDSGTFSLGKMITAKPGKTPIQVLHEYGMKTKNIPVYECERSDVQIHVPTFTFRVTVGDITCTGEGTSKKLAKHRAAEAAINILKANASICFAVPDPLMPDPSKQPKNQLNPIGSLQELAIHHGWRLPEYTLSQEGGPAHKREYTTICRLESFMETGKGASKKQAKRNAAEKFLAKFSNISPENHISLTNVVGHSLGCTWHSLRNSPGEKINLLKRSLLSIPNTDYIQLLSEIAKEQGFNITYLDIDELSANGQYQCLAELSTSPITVCHGSGISCGNAQSDAAHNALQYLKIIAERK",stoichiometry N,[4],2
"PACT-dsRBDmt2 (natural protein, human, UniProt O75569 1-313, looked up, human PACT with lysines 177 and 178 in dsRBD2 replaced with alanines; source: E. coli Rosetta (DE3) pLysS, purified (Ni-NTA agarose); not shown: His6, N-terminal, kept; myc, C-terminal, kept) MSQSRHRAEAPPLEREDSGTFSLGKMITAKPGKTPIQVLHEYGMKTKNIPVYECERSDVQIHVPTFTFRVTVGDITCTGEGTSKKLAKHRAAEAAINILKANASICFAVPDPLMPDPSKQPKNQLNPIGSLQELAIHHGWRLPEYTLSQEGGPAHKREYTTICRLESFMETGKGASAAQAKRNAAEKFLAKFSNISPENHISLTNVVGHSLGCTWHSLRNSPGEKINLLKRSLLSIPNTDYIQLLSEIAKEQGFNITYLDIDELSANGQYQCLAELSTSPITVCHGSGISCGNAQSDAAHNALQYLKIIAERK",stoichiometry N,[5],2
"PACT-dsRBDmt1 (natural protein, human, UniProt O75569 1-313, looked up, human PACT with lysines 84 and 85 in dsRBD1 replaced with alanines; source: E. coli Rosetta (DE3) pLysS, purified (Ni-NTA agarose); not shown: His6, N-terminal, kept; myc, C-terminal, kept) MSQSRHRAEAPPLEREDSGTFSLGKMITAKPGKTPIQVLHEYGMKTKNIPVYECERSDVQIHVPTFTFRVTVGDITCTGEGTSAALAKHRAAEAAINILKANASICFAVPDPLMPDPSKQPKNQLNPIGSLQELAIHHGWRLPEYTLSQEGGPAHKREYTTICRLESFMETGKGASKKQAKRNAAEKFLAKFSNISPENHISLTNVVGHSLGCTWHSLRNSPGEKINLLKRSLLSIPNTDYIQLLSEIAKEQGFNITYLDIDELSANGQYQCLAELSTSPITVCHGSGISCGNAQSDAAHNALQYLKIIAERK",stoichiometry N,[5],2
UCGAAGUAUUCCGCGUACGUG (ssRNA) [ssRNA_Luc2-153],binding result,TRBP-WT [2]; single strand,no binding
siLuc-1430 (dsRNA) RNA 1: CGGCGGCGGGAAGUUCACCGG RNA 2: GGUGAACUUCCCGCCGCCGUU,Kd,TRBP-WT [1]; 2 nt 3' overhangs,5.7 nM

# Source: PMC3642127, “Distinguishable In Vitro Binding Mode of Monomeric TRBP and Dimeric PACT with siRNA” (PLoS ONE, 2013)
